The results in this text go back to patent US5830755.

A value given as a limit tells only on which side of the number the result lay.

Assay [1] addresses 38 kD folate binding protein (FBP) (Homo sapiens (Human)) (UniProt P15328).
Assay [2] deals with CD3 on murine TIL (murine).
Assay [3] concerns the target MART-1(26-35) peptide … presented by HLA-A2.1 (human).
For assay [4], the target named is MART-1(27-36) peptide … presented by HLA-A2.1 (human).
In assay [5] the target is gp100(280-288) peptide … presented by HLA-A2.1 (human).
Assay [6] deals with MART-1(27-35) peptide … presented by HLA-A2.1 (human).
Assay [7] deals with melanoma antigen presented by HLA-A1 on HLA-A1+, HLA-A2- melanoma cell lines (peptide not identified) (human).
Assay [8] has as its target MART-1(22-30) peptide … pulsed on HLA-A2.1 T2 cells (human).
For assay [9], the target named is melanoma antigen presented by HLA-A2 on HLA-A2+ melanoma cell lines (peptide not identified in the experiment) (human).
The target of assay [10] is gp100 antigen processed in the cell and presented by HLA-A2.1 (human) (UniProt P40967).
Assay [11] concerns the target MART-1 antigen processed in the cell and presented by HLA-A2.1 (human) (UniProt Q16655).
Assay [12] concerns the target melanoma antigen presented by HLA-A1 on HLA-A1+, HLA-A2- melanoma cell lines (peptide not identified) (human). This is another data set of the same source.
In assay [13] the target is melanoma antigen presented by HLA-A2 on HLA-A2+ melanoma cell lines (peptide not identified in the experiment) (human). This is another data set of the same source.
Assay [14] has as its target MART-1(26-35) peptide … presented by HLA-A2.1 (human). The source holds these as a separate data set.
Assay [15] has as its target MART-1(32-40) peptide … pulsed on HLA-A2.1 T2 cells (human).
Assay [16] addresses MART-1(27-36) peptide … presented by HLA-A2.1 (human). This is another data set of the same source.
For assay [17], the target named is MART-1(27-35) peptide … presented by HLA-A2.1 (human). The source holds these as a separate data set.
In assay [18] the target is gp100(457-465) peptide … presented by HLA-A2.1 (human).
The target in assay [19] is MART-1(22-30) peptide … pulsed on HLA-A2.1 T2 cells (human). This is another data set of the same source.
For assay [20], the target named is melanoma antigen presented by HLA-A1 on HLA-A1+, HLA-A2- melanoma cell lines (peptide not identified) (human). This is another data set of the same source.
Assay [21] addresses melanoma antigen presented by HLA-A2 on HLA-A2+ melanoma cell lines (peptide not identified in the experiment) (human). This is another data set of the same source.
Assay [22] concerns the target MART-1(27-35) peptide … presented by HLA-A2.1 (human). The source holds these as a separate data set.
Assay [23] shares this target. The source holds these as a separate data set.
Assay [24] has as its target melanoma antigen presented by HLA-A1 on HLA-A1+, HLA-A2- melanoma cell lines (peptide not identified) (human). This is another data set of the same source.
The target in assay [25] is MART-1 antigen processed in the cell and presented by HLA-A2.1 (human) (UniProt Q16655). This is another data set of the same source.
Assay [26] has as its target 38 kD folate binding protein (FBP) (Homo sapiens (Human)) (UniProt P15328). This is another data set of the same source.
Assay [27] has the same target. The source holds these as a separate data set.

As to “nontransduced murine MC38 TIL (cells without a defined receptor)”, the pg mIFN-γ/ml/5 × 10^5 cells/16 hours in assay [1] is 1640 pg/mL.

For the substance 2C11 (anti-CD3) antibody, the pg mIFN-γ/ml/5 × 10^5 cells/16 hours in assay [2] is more than 50000 pg/mL.

Turning to “TIL 660 (uncloned TIL line) (cells without a defined receptor)”, the IFN-γ Secretion was determined as 1120 pg/mL in [3]; 52 pg/mL in assay [4]; 1320 pg/mL in assay [5]; 2330 pg/mL in [6]; 27 pg/mL in assay [7]; 21 pg/mL in assay [8]. Besides, in [9], the IFN-γ Secretion came to 585 pg/mL.

As to “clone A42 TCR (TIL A42 clonotype, Vα21/Jα42/Cα and Vβ7.3/Dβ2.1/Jβ2.7/Cβ2)”, the IFN-γ Secretion was less than 10 pg/mL in [10]; 730 pg/mL in assay [11]; 765 pg/mL in [3]; 22 pg/mL in assay [4]; 19 pg/mL in [5]; more than 20000 pg/mL in [6]. The IFN-γ Secretion in assay [7] came to 18 pg/mL; in [8], 16 pg/mL; in assay [9] it was 772 pg/mL. For the same substance, the % lysis, 5 hr 51Cr release, E:T 20:1 in assay [12] stood at 0 % lysis; in assay [13], 57 % lysis.

Regarding “TIL 1200 TCR (TIL 1200 clonotype, Vα9/Jα16/Cα and Vβ22.1/Dβ2.1/Jβ2.1/Cβ2)”, the IFN-γ Secretion was 451 pg/mL in [10] and less than 10 pg/mL in [11]. Moreover, the GM-CSF released in [14] was 23 pg/mL; in assay [15], less than 10 pg/mL; in assay [16], 19 pg/mL; in assay [17] it was 19 pg/mL; in assay [18], 240 pg/mL; in assay [19], less than 10 pg/mL. For the same substance, the % lysis, 4 hour 51Cr release, E:T 40:1 is 2 % lysis in assay [20] and 68 % lysis in assay [21].

Take “Sp-γ chimeric receptor (scFv of anti-2,4,6 TNP MoAb Sp6 joined to the Fc receptor γ chain) (CAR)”: the pg mIFN-γ/ml/5 × 10^5 cells/16 hours in assay [1] was 1010 pg/mL.

For the substance “TIL 1143 (uncloned TIL culture) (cells without a defined receptor)”, the IFN-γ Secretion in assay [10] was 199 pg/mL; in assay [11], 986 pg/mL.

For “clone 5 TCR (TIL5 clonotype, Vα1/Jα49/Cα and Vβ7.3/Dβ2.1/Jβ2.1/Cβ2)”, in [22], the concentration of peptide required to provide 50% of maximal IL-2 stimulation lay within 50 to 200 nM. For the same substance, the IL-2 released in [14] is 4060 pg/mL; in [15] it was less than 10 pg/mL; in assay [16], 469 pg/mL; in assay [17], 4760 pg/mL; in assay [18], less than 10 pg/mL; in assay [19], less than 10 pg/mL. Besides, the IL-2 released (pg/ml), HLA-A2+ melanoma cells loaded with peptide in assay [23] is 540 pg/mL. In addition, the % lysis, 4 hour 51Cr release, E:T 10:1 was -2 % lysis in [20] and 52 % lysis in [21].

As to “TIL 501 (uncloned TIL culture) (cells without a defined receptor)”, the IFN-γ Secretion is less than 10 pg/mL in assay [10] and 121 pg/mL in assay [11].

Consider “TIL F2-2 TCR (TIL F2-2 clonotype, Vα17/Jα42/Cα and Vβ6.5/Dβ1.1/Jβ1.5/Cβ1)”, for which the % lysis, 4 hour 51Cr release, E:T 40:1 in assay [20] amounted to 1 % lysis; in assay [21], 46 % lysis.

For “TIL 1235 (uncloned TIL line) (cells without a defined receptor)”, the GM-CSF released in assay [14] is 6710 pg/mL; in [15], less than 10 pg/mL; in [16], 614 pg/mL; in [17], 11900 pg/mL; in assay [18], 27 pg/mL; in [19], 21 pg/mL. In addition, the GM-CSF released in assay [24] was less than 10 pg/mL; in [25], 557 pg/mL. Further, the IFN-γ Secretion in assay [5] is 15 pg/mL.

“splenocytes of normal mice (cells without a defined receptor)” registered a mIFN-γ, pg/1.5 × 10^6 splenocytes/ml/48 hrs, fresh splenocytes in assay [26] of 92 pg/mL.

Turning to “clone 1E2 TCR (TIL 1E2 clonotype, Vα25/Jα54/Cα and Vβ3.1/Dβ1.1/Jβ1.1/Cβ1)”, the IFN-γ Secretion in assay [10] was less than 10 pg/mL; in [11], 1340 pg/mL; in assay [3], 5250 pg/mL; in assay [4] it was 24 pg/mL; in assay [5], 21 pg/mL; in assay [6], 16500 pg/mL. The IFN-γ Secretion in assay [7] was determined as 29 pg/mL; in [8], 18 pg/mL; in assay [9], 2700 pg/mL. For the same substance, the results for the % lysis, 5 hr 51Cr release, E:T 20:1 in assay [12] and in assay [13] were 0 % lysis and 94 % lysis, respectively.

On to “Jurkat neo (non-transfected Jurkat cells with the endogenous Jurkat TCR, Vβ8)”, for which the IL-2 released in [15], in assay [16], in assay [17], in assay [18] and in assay [19] was less than 10 pg/mL each time.

As to “TIL C10-1 TCR (C10-1 T-cell clonotype, Vα8.2/Jα49/Cα and Vβ13.6/Dβ1.1/Jβ1.5/Cβ1)”, the % lysis, 4 hour 51Cr release, E:T 40:1 was 55 % lysis in [20] and 0 % lysis in [21].

“MOv-γ chimeric receptor (scFv of MoAb MOv18 joined to the Fc receptor γ chain) (CAR)”: in [26], the mIFN-γ, pg/1.5 × 10^6 splenocytes/ml/48 hrs, fresh splenocytes is 1080 pg/mL. The mIFN-γ, pg/1.5 × 10^6 splenocytes/ml/18 hrs, activated splenocytes in [27] was 2830 pg/mL. In assay [1], this substance had a pg mIFN-γ/ml/5 × 10^5 cells/16 hours of 16000 pg/mL.
